Test results from paper PMC6175878, “ROS-induced R loops trigger a transcription-coupled but BRCA1/2-independent homologous recombination pathway through CSB” (Nature Communications, 2018).
Blank lines part the entries; values can stand above or below the molecule they belong to.

Experiments:
6H-Flag-CSB (human) = 6H-Flag-CSB (human) (UniProt Q03468); test: SEC; Superdex 200 in Buffer B (25 mM Tris-Cl pH 7.5, 10% glycerol, 0.5 mM EDTA, 500 mM KCl, 0.01% IGEPAL, 1 mM DTT), 4 °C; last step of the purification
GST-CSB-AD = GST-CSB-AD (human, UniProt Q03468 337-509); test: EMSA; 1 mM Mg2+; EMSA: 25 mM Tris-HCl pH 7.5, 1 mM MgCl2, 1 mM DTT, 50 ug/mL BSA, 50 mM NaCl, 15 min 37 C, 6% PAGE-TBE at 4 C; pull-down: 20 mM Tris-HCl pH 7.5, 50 mM NaCl, 2 mM MgCl2, 0.1% Tween-20, 30% glycerol, RNase 0.2 U/uL (so in the source); details: protein: recombinant; tags: GST (N-term, pGEX-4T-3); label: 5' maleimide-IR800 on oligo 1 (RNA); blunt
GST-CSB-CTD = GST-CSB-CTD (human, UniProt Q03468 1200-1493); test: as above; details: protein: recombinant; tags: GST (N-term, pGEX-4T); label: 5' maleimide-IR800 on oligo 1 (RNA); blunt
RAD52 = molecular target: T1, RAD52 (human, UniProt P43351 1-418); test: EMSA; 1 mM Mg2+; lower affinity than CSB-FL; EMSA: 25 mM Tris-HCl pH 7.5, 1 mM MgCl2, 1 mM DTT, 50 ug/mL BSA, 50 mM NaCl, 15 min 37 C, 6% PAGE-TBE at 4 C; pull-down: 20 mM Tris-HCl pH 7.5, 50 mM NaCl, 2 mM MgCl2, 0.1% Tween-20, 30% glycerol, RNase 0.2 U/uL (so in the source); details: protein: recombinant; tags: C-terminal 6xHis; label: 5' maleimide-IR800 on oligo 1 (RNA); blunt
T1 sequence: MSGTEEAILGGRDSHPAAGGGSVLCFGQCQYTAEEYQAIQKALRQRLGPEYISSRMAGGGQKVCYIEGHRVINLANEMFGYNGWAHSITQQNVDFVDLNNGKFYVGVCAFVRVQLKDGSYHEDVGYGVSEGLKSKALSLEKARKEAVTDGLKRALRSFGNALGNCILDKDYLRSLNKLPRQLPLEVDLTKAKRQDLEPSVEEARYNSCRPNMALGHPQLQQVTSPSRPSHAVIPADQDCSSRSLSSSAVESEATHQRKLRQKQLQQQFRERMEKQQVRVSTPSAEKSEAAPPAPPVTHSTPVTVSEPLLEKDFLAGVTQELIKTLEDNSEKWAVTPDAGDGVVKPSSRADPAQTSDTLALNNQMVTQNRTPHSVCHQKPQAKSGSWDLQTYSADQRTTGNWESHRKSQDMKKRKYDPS

[1] = molecular target: 6H-Flag-CSB full length (CSB-FL) (human, UniProt Q03468 1-1493); test: EMSA; 1 mM Mg2+; much higher affinity than RAD52; EMSA: 25 mM Tris-HCl pH 7.5, 1 mM MgCl2, 1 mM DTT, 50 ug/mL BSA, 50 mM NaCl, 15 min 37 C, 6% PAGE-TBE at 4 C; pull-down: 20 mM Tris-HCl pH 7.5, 50 mM NaCl, 2 mM MgCl2, 0.1% Tween-20, 30% glycerol, RNase 0.2 U/uL (so in the source); details: protein: recombinant; chain copies: 2; label: 5' maleimide-IR800 on oligo 1 (RNA); blunt
[2] = molecular target: T2, hRAD52 with a C-terminal 6x-his tag (human, UniProt P43351 1-418); test: cross-linking; 1 mM DSS, 100 mM Hepes pH 7.5, 50 mM KCl, 25 °C, 1 h; cross-linked species (>250 kDa) cut from SDS-PAGE, trypsin, mass spectrometry (pLink); details: both partners purified
T2 construct: RAD52, human (hRAD52), from pET28b-RAD52; also called His-RAD52; RAD52 protein; source: E. coli Rosetta, purified (Affiblue, Ni-NTA); not shown: His6, C-terminal, kept
T2 sequence (looked up): T1 sequence

Sequence of GST-CSB-CTD (Q03468 1200-1493): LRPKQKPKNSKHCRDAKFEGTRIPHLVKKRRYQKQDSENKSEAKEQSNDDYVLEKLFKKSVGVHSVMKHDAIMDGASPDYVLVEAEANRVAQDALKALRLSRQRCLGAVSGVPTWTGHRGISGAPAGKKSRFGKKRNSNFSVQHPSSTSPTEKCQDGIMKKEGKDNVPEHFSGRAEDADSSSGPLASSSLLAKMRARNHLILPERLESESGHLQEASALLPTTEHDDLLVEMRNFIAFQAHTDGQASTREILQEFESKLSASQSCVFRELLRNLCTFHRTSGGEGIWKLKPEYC
Sequence of 6H-Flag-CSB full length (CSB-FL) (Q03468 whole entry): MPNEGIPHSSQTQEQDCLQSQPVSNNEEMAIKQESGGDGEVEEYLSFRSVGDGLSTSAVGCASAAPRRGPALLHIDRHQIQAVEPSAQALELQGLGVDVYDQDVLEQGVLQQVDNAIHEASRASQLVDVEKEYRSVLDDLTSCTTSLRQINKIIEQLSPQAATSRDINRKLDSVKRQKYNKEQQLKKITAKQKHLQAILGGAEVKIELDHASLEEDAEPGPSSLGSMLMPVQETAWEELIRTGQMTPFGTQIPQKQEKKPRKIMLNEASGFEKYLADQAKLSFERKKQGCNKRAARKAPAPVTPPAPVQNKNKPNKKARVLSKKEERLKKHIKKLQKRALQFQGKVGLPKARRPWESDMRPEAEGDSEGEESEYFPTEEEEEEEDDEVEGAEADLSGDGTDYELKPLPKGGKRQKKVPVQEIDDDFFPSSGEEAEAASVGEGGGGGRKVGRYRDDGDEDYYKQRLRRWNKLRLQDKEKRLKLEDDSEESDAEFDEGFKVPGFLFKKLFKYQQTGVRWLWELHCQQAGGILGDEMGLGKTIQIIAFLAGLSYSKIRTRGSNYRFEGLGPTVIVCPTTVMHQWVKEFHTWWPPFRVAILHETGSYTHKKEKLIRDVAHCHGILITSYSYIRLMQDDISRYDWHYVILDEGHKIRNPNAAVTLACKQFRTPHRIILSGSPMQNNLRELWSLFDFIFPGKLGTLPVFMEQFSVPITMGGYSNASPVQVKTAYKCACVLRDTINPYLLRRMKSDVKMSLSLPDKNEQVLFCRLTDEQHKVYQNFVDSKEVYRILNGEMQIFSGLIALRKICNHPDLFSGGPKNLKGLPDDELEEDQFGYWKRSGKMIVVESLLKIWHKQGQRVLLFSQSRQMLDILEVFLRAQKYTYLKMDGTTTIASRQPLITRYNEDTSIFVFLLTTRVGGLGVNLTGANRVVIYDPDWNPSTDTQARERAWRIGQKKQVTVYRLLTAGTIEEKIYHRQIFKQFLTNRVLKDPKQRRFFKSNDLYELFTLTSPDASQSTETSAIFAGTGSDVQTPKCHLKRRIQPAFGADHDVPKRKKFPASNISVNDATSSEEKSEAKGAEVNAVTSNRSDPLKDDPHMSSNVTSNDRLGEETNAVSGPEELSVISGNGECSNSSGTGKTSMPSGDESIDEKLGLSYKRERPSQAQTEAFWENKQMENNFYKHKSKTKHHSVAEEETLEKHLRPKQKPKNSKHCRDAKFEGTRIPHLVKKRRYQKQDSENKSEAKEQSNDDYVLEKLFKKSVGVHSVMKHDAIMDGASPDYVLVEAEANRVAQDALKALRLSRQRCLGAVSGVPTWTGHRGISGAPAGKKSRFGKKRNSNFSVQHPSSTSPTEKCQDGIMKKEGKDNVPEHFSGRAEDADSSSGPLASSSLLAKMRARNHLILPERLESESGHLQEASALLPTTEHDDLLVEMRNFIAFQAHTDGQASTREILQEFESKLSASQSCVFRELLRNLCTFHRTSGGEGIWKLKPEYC

stoichiometry N (6H-Flag-CSB (human)): 2
Molecule: 6H-Flag-CSB (from UniProt Q03468 1-1493) (natural protein; other documents disagree on this pair)

B1: DNA:RNA hybrid oligo 1/oligo 2 (DNA:RNA)
RNA: UUAAUUGGUGUGACUAAUCGAAGUUGAUACAUCGACGUUAUGGUGAUGAU
DNA: ATCATCACCATAACGTCGATGTATCAACTTCGATTAGTCACACCAATTAA
binding result (GST-CSB-AD): no binding
binding result (GST-CSB-CTD): binds
binding result (RAD52): binds
binding result [1]: binds

binding result [2]: binds
B2: GST-CSB-AD (residues 337-509) (domain or fragment, human, UniProt Q03468 337-509, looked up)
chain: KRALQFQGKVGLPKARRPWESDMRPEAEGDSEGEESEYFPTEEEEEEEDDEVEGAEADLSGDGTDYELKPLPKGGKRQKKVPVQEIDDDFFPSSGEEAEAASVGEGGGGGRKVGRYRDDGDEDYYKQRLRRWNKLRLQDKEKRLKLEDDSEESDAEFDEGFKVPGFLFKKLFK
notes: Cockayne Syndrome Protein B (CSB), human, acidic domain residues 337-509; Inserted into pGEX-4T-3 with XhoI and NotI; also called GST-tagged human CSB-AD; purified CSB-AD; source: E. coli Rosetta 2, purified (glutathione sepharose 4B)
